The target in test [1] is S protein of the novel coronavirus SARS-CoV-2 (SARS-CoV-2, UniProt P0DTC2 14-1273). The experiment in a line: cell-based or functional assay.
Test [2] deals with biotin-labeled SARS-COV-2 RBD domain (SARS-CoV-2, UniProt P0DTC2 319-541). The experiment in a line: SPR, Biacore T200, biotin-RBD on SA chip, antibody as analyte. A general note: Surface plasmon resonance follows binding to a sensor surface in real time, without labels.

B1: ABU-372 (antibody, V domains shown)
VH: EVQLVESGGGLVQPGGSLRLSCAASGVTVSRNYMSWVRQAPGKGLEWVSVIYSGGSTDYADSVKGRFTISRHNSKNTLYLQMNSLRVEDTAVYYCARDGYGMDVWGQGTTVTVSS
VL: DIQLTQSPSFLSASVGDRVTITCRASQGISSYLAWYQQKPGKAPNLLIYAASTLQSGVPSRFSGSGSGTEFTLTISSLQPEDFATYYCQQLNSYPPAFGPGTKVDIK
Broadly, the Kd is the constant that tells how readily two partners part at equilibrium. As to B1, the “IC50 for neutralizing SARS-CoV-2 pseudovirus (Huh-7 cells, luciferase)” value (from here on “IC50”) in test [1] is < 0.5 µg/mL. Moreover, the equilibrium dissociation constant (Kd) in test [2] is < 20 nM.

B2: ABU-355 (antibody, V domains shown)
VH: EVQLVESGGGLVQPGGSLRLSCAASGITVRSNYMSWVRQAPGKGLEWVSVIYSGGSTFYADSVKGRFTISRDNSKNTLYLQMNSLRAEDTAVYYCARDLISRGMDVWGQGTTVTVSS
VL: DIQLTQSPSSLSASVGDRVTITCRASQGISSYLAWYQQKPGKAPKLLIYAASTLQSGVPSRFSGSGSGTDFTLTISSLQPEDFATYYCQQLNGYPHSAFGPGTKVDIK
As for B2, in test [1], the “IC50” value was < 0.1 µg/mL. For the same molecule, in test [2], the dissociation constant (Kd) was < 1 nM.

B3: ABU-367 (antibody, V domains shown)
VH: EVQLVESGGGLIQPGGSLRLSCAASGIIVSSNYMTWVRQAPGKGLEWVSVIYSGGSTFYADSVKGRFTISRDNSKNTLYLQMSSLRAEDTAVYYCARDLGPYGMDVWGQGTTVTVSS
VL: DIQLTQSPSFLSASVGDRVTITCRASQGISSDLAWYQQKPGKAPNLLIYAASTLQSGVPSRFSGSGSGTEFTLTISSLQPEDFATYYCQQLNSDLYTFGQGTKLEIK
With B3, the “IC50” value in test [1] is < 0.1 µg/mL. Besides, the Kd in test [2] is < 1 nM.

B4: ABU-373 (antibody, V domains shown)
VH: EVQLVESGGGLIQPGGSLRLSCAASGITVSSNYMSWVRQAPGKGLEWVSVIYSGGSTYYADSVKGRFTISRDNSKNTLYLQMNSLRAEDTAVYYCARGGAYYYGMDVWGQGTTVTVSS
VL: DIQLTQSPSFLSASVGDRVTITCRASQGISSYLAWYQQKPGKAPKLLIYAASTLQSGVPSRFSGSGSGTEFTLTISSLQPEDFATYYCQQLNTYPPFGFGPGTKVDIK
Turning to B4, in test [1], the “IC50” value is < 0.5 µg/mL. For the same molecule, the equilibrium dissociation constant (Kd) in test [2] is < 10 nM.

B5: ABU-361 (antibody, V domains shown)
VH: EVQLVESGGGLIQPGGSLRLSCAASGLTVSSNYMSWVRQAPGKGLEWVSVIYSGGSTYYADSVKGRFTISRDNSTNTLYLQMNSLRAEDTAVYYCARDLDYYGMDVWGQGTTVTVSS
VL: DIQLTQSPSSLSASVGDRVTITCRASQGISSYLAWYQQKPGKAPNLLIYAASTLQSGVPSRFSGSGSGTDFTLTISSLQPEDFATYYCQHLNSYPPITFGQGTRLEIK
Consider B5, for which the “IC50” value in test [1] is < 0.5 µg/mL. For the same molecule, the Kd in test [2] was < 20 nM.

B6: ABU-359 (antibody, V domains shown)
VH: EVQLVESGGGLVQPGGSLRLSCAASGFIVSSNYMTWVRQAPGKGLEWVSVIYSGGSTFYADSVKGRFTISRHNSKNTLFLQMNSLRAEDTAVYYCARDAQNYGMDVWGQGTTVTVSS
VL: DIQMTQSPSSLSASVGDRVTITCRASQSISSYLNWYQQKPGKAPKLLIFAASSLQTGAPSRFSGSGSGTDFTLTISSLQPEDFATYYCQQSYSTPPYTFGQGTKLEIK
In the case of B6, the “IC50” value in test [1] is < 0.1 µg/mL. The dissociation constant Kd in test [2] is < 10 nM.

B7: ABU-358 (antibody, V domains shown)
VH: EVQLVESGGGLIQPGGSLRLSCAASGLTVSSNYMNWVRQAPGKGLEWVSVIYSGGSTYYADSVKGRFTISRDNSKNMVYLQMNSLRAEDTAVYYCARDLVVYGMDVWGQGTTVIVSS
VL: DIQLTQSPSSLSASVGDRVTITCRASQGISSYLAWYQQKPGKAPKLLIYAASTLQSGVPSRFSGSGSGTDFTLTISSLQPEDVATYYCQQLNSNPPITFGPGTKVDIK
On to B7, for which the “IC50” value in test [1] was < 0.1 µg/mL. Moreover, the Kd in test [2] was < 10 nM.

B8: ABU-356 (antibody, V domains shown)
VH: EVQLVESGGGLIQPGGSLRLSCAASGFTVSSNYMNWVRQAPGKGLEWVSVIYSGGSTFYADSVKGRFTISRDNSKNTLYLQMNSLRAEDTAVYYCARDRVVYGMDVWGQGTTVTVSS
VL: DIQMTQSPSSLSASVGDRVTITCQASQDIINYLNWYQQKPGKAPKLLIYGASNLETGVPSRFSGGGSGTDFTFTISSLQPEDIATYYCHQYDNLPPTFGQGTRLEIK
B8: the “IC50” value in test [1] was < 0.1 µg/mL. In addition, the Kd in test [2] was < 10 nM.

B9: ABU-369 (antibody, V domains shown)
VH: EVQLVESGGGLIQPGGSLRLSCAASGLTVSSNYMSWVRQAPGKGLEWVSVIYSGGSTFYADSVKGRFTISRDNSKNTLYLQMNSLRAEDTAVYYCARDLYYYGMDVWGQGTTVTVSS
VL: AIQLTQSPSSLSASVGDRVTITCRASQGISSYLAWYQQKPGKAPKLLIFAASTLQSGVPSRFSGSGSGTDFTLTISSLQPEDFATYYCQQLDSYPLFGGGTKVEIK
Turning to B9, the “IC50” value in test [1] was < 0.1 µg/mL. The Kd in test [2] is < 10 nM.

B10: ABU-362 (antibody, V domains shown)
VH: EVQLVESGGGLVQPGGSLRLSCAASGFTVSRNYMSWVRQAPGKGLEWVSVIYSGGTTHYADSVKGRFTISRHNSKNTLYLQMNSLRAEDTAVYYCARDLVVYGMDVWGQGTTVTVSS
VL: DIQLTQSPSFLSASVGDRVTITCRASQGISSYLAWYQQKPGKAPKLLIYAASTLQSGVPSSFSGSGSGTEFTLTISSLQPEDFATYYCQQLNSYPLTFGGGTKVEIK
For the molecule B10, in test [1], the “IC50” value was < 0.5 µg/mL. Moreover, in test [2], the dissociation constant (Kd) is < 20 nM.

B11: ABU-368 (antibody, V domains shown)
VH: EVQLVESGGGLIQPGGSLRLSCAASGFTVSSNYMSWVRQAPGKGLEWVSVIYSGGSTFYADSVKGRFTISRDNSKNTLYLQMNSLRAEDTAVYYCARDLGAYGMDVWGQGTTVTVSS
VL: DIQLTQSPSFLSASVGDRVTITCRASQGISSYLAWYQQKPGKAPKLLIYAASTLQSGVPSRFSGSGSGTEFTLTISSLQPEDFATYYCQQLNSDLYTFGQGTKLEIK
As for B11, in test [1], the “IC50” value was < 0.5 µg/mL. For the same molecule, the Kd in test [2] is < 20 nM.

B12: ABU-371 (antibody, V domains shown)
VH: EVQLVESGGGLVQPGGSLRLSCAASGIIVSSNYMSWVRQAPGKGLEWVSVIYSGGSTYYADSVKGRFTISRDNSKNTLYLQMNSLRAEDTAVYYCARDLDYYGMDVWGQGTTVTVSS
VL: DIQLTQSPSFLSASVGDRVTITCRASQGISSYLAWYQQKPGKAPKLLIYAASTLQSGVPSRFSGSGSGTEFTLTISSLQPEDFATYYCQQLNSYPPFTFGPGTKVDIK
For B12, the “IC50” value in test [1] was < 1 µg/mL. In addition, the Kd in test [2] was < 20 nM.

B13: ABU-360 (antibody, V domains shown)
VH: EVQLVESGGGLVQPGGSLRLSCAASEFIVSRNYMSWVRQAPGKGLEWVSVIYSGGSTFYADSVKGRFTISRDNSKNTLYLQMNSLRAEDTGVYYCARDRGLVSDYWGQGTLVTVSS
VL: DIQMTQSPSSLSASVGDRVTITCQASQDINKYLNWYQQKPGKAPKLLIFDASHLETGVPSRFSASGSGTDFTFTISSLQPEDIATYYCHQYDNLPRTFGQGTRLEIK
Consider B13, for which the “IC50” value in test [1] is < 0.1 µg/mL. In addition, the dissociation constant (Kd) in test [2] was < 1 nM.

B14: ABU-365 (antibody, V domains shown)
VH: EVQLVESGGGLIQPGGSLRLSCAASGVTVSSNYMSWVRQAPGKGLEWVSLIYSGGSTYYADSVKGRFTISRDNSKNTLYLQMNSLRAEDTAVYYCARPIVGARSGMDVWGQGTTVTVSS
VL: DIQMTQSPSSLSASVGDRVTITCQASQDINNYLNWYQQKPGKAPKLLIYDASNLETGVPSRFSGSGSGTDFTFIISSLQPEDIATYYCQQHDNLPVTFGGGTKVEIK
Turning to B14, the “IC50” value in test [1] is < 0.1 µg/mL. In addition, in test [2], the Kd was < 10 nM.

(Values after US20230183322A1 (PEKING UNIVERSITY, published 2023).)
